We go through three substances from article PMC10114367 (Fluids and Barriers of the CNS, 2023).

Entries after “also recorded” stand apart in the source; their conditions may differ.

Series [1] has as its system blood-brain barrier (BBB). The series is described as follows: Whole brain vascular space / BBB permeability to ^99mTc-albumin following CNS treatment. The series is classed as in vivo, CD-1 mice. Here is the method: For all radioactive studies, the right jugular vein and left carotid artery were exposed. […] Mice were injected IV with the radioactive tracer 10 min later. […] The whole brain, olfactory bulb, and in some cases the hypothalamus were removed and weighed. […] Each mouse yielded a single serum sample and time-matched brain sample. Exposure time was calculated from the formula:1 [drawing 1] , where Am is the level of radioactivity (CPM) per gram of brain tissue at time (t), Cpt is the level of radioactivity (CPM) per ml arterial serum at time t, Ki (μl/g-min) is the steady-state rate of unidirectional solute influx from blood to brain. Vi (μl/g) is the level of solute in rapid, reversible equilibrium between plasma and brain. Subtracting ratios for ^99mTc-albumin from the corresponding ^125I-insulin brain/serum (B/S) ratio yielded a delta B/S ratio, which corrects the B/S ratio for ^125I-insulin for vascular space. The linear portion of the relation between the delta B/S ratio versus exposure time is represented in the figures and was used to calculate the Ki (μl/g-min) with its standard error term, and the y-intercept determined representing the Vi(μl/g).

Series [2] can be described thus: Distribution of ^125I-insulin and ^125I-S961 following ICV delivery. The class given is in vivo, CD-1 mice. Here is the method:
The scalp was reflected in anesthetized mice and a hole was drilled 1 mm lateral and 0.2 mm posterior to the Bregma. […] Brains were removed between 2 and 60 min later and dissected into regions. […] Weighed brain regions and serum were counted in a gamma counter (Wizard2, Perkin Elmer, Waltham, MA, USA). […] The %Inj was divided by the weight of the region (g/region) or the volume serum measured (ul/serum) to calculate the %Inj/g and %Inj/ml. Pilot studies were performed to identify ventricular injection using this method.

For series [3] the following is noted: cited from earlier work.
Series [4] is described as follows: Immunoactive serum insulin measurement (MSD mouse insulin kit) after ICV treatment. The class given is in vivo, CD-1 mice. To be noted: male, kit cross reacts with human insulin. On the procedure:
Whole blood was centrifuged at 3,200xg for 10 min. Serum was collected, aliquoted, and frozen at -80 °C until measurement. […] This kit cross reacts with human insulin.

The subject of series [5] is insulin transport across the blood-brain barrier (BBB). The series is described as follows: ^125I-insulin blood-to-brain BBB pharmacokinetics by multiple-time regression analysis (MTRA) after CNS treatment. The series is classed as in vivo, CD-1 mice. To be noted: for Ki of ^125I-insulin (unidirectional influx blood to brain) / Vi of ^125I-insulin (reversible vascular binding): male mice; for Ki of ^125I-insulin (unidirectional influx blood to brain): MTRA slope ± SE; for Vi of ^125I-insulin (reversible vascular binding): MTRA y-intercept. Here is the method:
For all radioactive studies, the right jugular vein and left carotid artery were exposed. […] The whole brain, olfactory bulb, and in some cases the hypothalamus were removed and weighed. […] Each mouse yielded a single serum sample and time-matched brain sample. Exposure time was calculated from the formula:1 [drawing 1] , where Cp is the level of radioactivity (CPM) in serum at time (t). […] Vi (μl/g) is the level of solute in rapid, reversible equilibrium between plasma and brain. […] The linear portion of the relation between the delta B/S ratio versus exposure time is represented in the figures and was used to calculate the Ki (μl/g-min) with its standard error term, and the y-intercept determined representing the Vi(μl/g). Regression analyses and other statistical analyses were performed with Prism 9.0 (GraphPad Softward Inc., San Diego, CA, USA). For all MTRA pharmacokinetic studies, the slope of the linear regression lines (Ki), reported with their correlation coefficients (r), and y-intercepts (Vi) were compared statistically using Prism equivalent to an analysis of covariance (ANCOVA). For these studies, the individual data points are presented in the representative Figures. For the regional studies, the regional B/S levels for each sex were reported with their standard error terms and analyzed by a two-way analysis of variance (ANOVA) followed by Tukey's post hoc test when appropriate.

Series [6] has as its target insulin transport across the blood-brain barrier (BBB). The note with it: per mouse; cited from earlier work. Here is the method:
The average blood volume of a mouse is about 77–80 ml/kg. Given that our male CD-1 mice are approximately 30 g at the time of study, these mice have around 2.4 ml of blood. […] Therefore, while th ...

Series [7] deals with regional brain vascular space. The series is described as follows: Regional ^99mTc-albumin brain/serum ratios (vascular space) following CNS treatment. The class given is in vivo, CD-1 mice. To be noted: olfactory bulb; male; 30 min after 1 µg IN insulin. On the procedure:
For the regional studies, brain and serum were collected at a single time point post central nervous system (CNS) manipulation. For IN studies following ICV delivery, S961 (1 µg in PB) or vehicle was given ICV, and IN ^125I-insulin was immediately administered. 30 min later, brain and serum were collected. […] For IV studies following ICV delivery, S961 (1 µg in PB) or vehicle was given ICV and 10 min later, IV ^125I-insulin and ^99mTc-albumin was injected. For the IV studies, brain and serum were collected 5 min later. Olfactory bulb (OB) and the whole brain dissected into 10 regions were weighed: striatum (St), frontal cortex (FC), hypothalamus (Hy), hippocampus (HC), thalamus (Th), parietal cortex (PC), occipital cortex (OC), cerebellum (CB), midbrain (MB), and pons-medulla (PM). Whole brain (WB) is the summed value from individual regions. The levels of radioactivity in serum (50 µl) and brain samples were counted in a gamma counter (Wizard2, Perkin Elmer, Waltham, MA, USA). %Inj/g for IN distribution and Delta B/S ratios following IV administration were calculated as described above. ^99mTc-albumin B/S ratios are also presented to identify changes in regional vascular space following CNS manipulation.

The mark [8] stands for this setting: olfactory bulb, 1 µg ICV insulin 10 min before IV ^125I-insulin.
[9] abbreviates: olfactory bulb, 1 µg IN insulin 30 min before IV ^125I-insulin.
Where [10] appears, read: whole brain, 1 µg ICV insulin 10 min before IV ^125I-insulin.

Take “^99mTc-albumin: bovine serum albumin labeled with Technetium-99m; marker for vascular space”: the “^99mTc-albumin whole brain B/S ratio” value in series [1] (mouse, in vivo, iv) was in the range of 8 to 12 µL/g.
Consider “^125I-insulin: human insulin radioactively labeled with ^125I; tracer for BBB transport”, for which, in series [2] (mouse, in vivo), the “amount of ^125I-insulin entering the blood following ICV delivery” value was < 3 %Inj/ml, the “time by which tracer is distributed throughout the brain after ICV delivery” value is ≤ 5 min and the “time to appearance in serum after ICV injection” value is recorded as ≤ 5 min. Also, in series [3] (mouse, in vivo), the “^125I-insulin present in whole brain after IN delivery” value is given as “approximately 0.13 %Inj/g” and the “time of peak brain level after IN administration” value is on record as “about 30 min”.
In the case of human insulin, in series [4] (30 min after 1 µg ICV human insulin), the “change in serum insulin level vs vehicle” value is reported as “nearly doubled; also recorded: two-fold increase”. Further, in series [4] (30 min after 1 µg human insulin ICV), the “rise in serum insulin level” value came to 5 ng/mL. For the same substance, in series [2] (calculated from %Inj/g at 10 min and 1 µg ICV dose), the “expected amount per gram of brain tissue after 1 µg ICV administration” value was “approximately 605 ng per gram of brain tissue”. Further, the “level in whole brain after ICV delivery” value in series [2] (radiolabelled tracer ICV, whole brain at 10 min) was “approximately 60.5 %Inj/g”. In addition, the “Ki of ^125I-insulin (unidirectional influx blood to brain)” value in series [5] (hypothalamus, 1 µg IN insulin 30 min before IV ^125I-insulin, regression ns) was 0.57 ± 0.88 µL/g/min; in series [5] (setting [8]), ~ 0.3 µl/g-min; in series [5] (olfactory bulb, 1 µg ICV insulin 10 min before IV ^125I-insulin, listed as Insulin), 0.35 ± 0.16 µL/g/min; in series [5] (setting [9]) it was 2.74 ± 0.52 µL/g/min; in series [5] (setting [10]), ~ 0.3 µl/g-min; in series [5] (whole brain, 1 µg ICV insulin 10 min before IV ^125I-insulin, listed as Insulin), 0.30 ± 0.11 µL/g/min. In addition, the “slowing of ^125I-insulin blood-to-brain transport rate vs vehicle” value in series [5] (hypothalamus, male, 1 µg IN insulin, 30 min) is “about 85%”. Further, the “Vi of ^125I-insulin (reversible vascular binding)” value in series [5] (setting [8]) worked out at 14.6 ± 2.2 µL/g; in series [5] (setting [9]), 9.7 ± 3.9 µL/g; in series [5] (setting [10]) it was 7.9 ± 1.5 µL/g. The “decrease of ^125I-insulin blood-to-brain transport rate vs vehicle” value in series [5] (olfactory bulb, male, 1 µg ICV insulin, 10 min) is reported as “about 82%”. Further, the “effect on whole brain vascular space or BBB leakage measured with ^99mTc-albumin” value in series [1] (1 µg ICV or IN insulin (males), 1 µg ICV S961 (males, females)) was “no effect”. In addition, the “IV bolus of unlabeled insulin necessary to reduce the ^125I-insulin BBB Ki by 50%” value in series [6] is 121 ng. In addition, in series [7], the “increase in ^99mTc-albumin vs vehicle” value stood at 43%. The “insulin present in hypothalamus after IN delivery” value in series [3] (hypothalamus, 30 min after IN insulin delivery, male CD-1 mice) is recorded as 0.23 %Inj/g.
